According to the supplement of paper PMC12042874:
± gives the uncertainty stated by the source.

Test: amyloid nucleation score (Sup35N fusion, yeast selection) (log enrichment); library NNK3; higher = more nucleation; inactive = no reads after selection
How it was run: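 Libraries of peptides of 20 random codons fused to Sup35N were expressed in psi-negative yeast and induced 24 hours with 100 μM copper sulfate. Selection was 7 days at 30°C on medium lacking adenine and uracil, and plasmid inserts were Illumina-sequenced before and after selection. Nucleation score is the DiMSum log enrichment of output over input reads, centred on the mode score of non-aggregating sequences, and sequences with under 100 input reads were left out.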

| Substance | amyloid nucleation score |
| --- | --- |
| CLFYLCRARMMFNWPSCTRG | 0.933 ± 0.22 |
| CLGGHLTHLHL | inactive |
| CLGPKCATKDIFL | inactive |
| CLGVSNTYHWSYRRIFRYRF | inactive |
| CLISLDHIFLPSWNTGICIL | inactive |
| CLISQFVY | inactive |
| CLKTFVFMTDTRG | 1.47 ± 0.12 |
| CLMPLSDN | inactive |
| CLRVICCFWKRPGFDWYLEM | inactive |
| CLSMSLAKLGVIYL | 0.724 ± 0.21 |
| CLYLYVRLRYSLVSSSHPFL | inactive |
| CMFLGSELCWRRPRGS | 0.443 ± 0.32 |
| CMFSLV | inactive |
| CMFYLLVSLPWVAVTSVLRV | inactive |
| CMLSPV | inactive |
| CMPFMR | inactive |
| CMYKTFHFDY | inactive |
| CNCRKRLVWSFGYMNISMYL | inactive |
| CNDFNSYVRCYIMSNNFFRY | inactive |
| CNFQYILCRIM | 2.15 ± 0.057 |
| CNGFTVGWPWGRRLRDPPGH | -0.598 ± 2.4 |
| CNIISQTRGHEISQCGSWMW | inactive |
| CNWMIPASSP | inactive |

| Substance | amyloid nucleation score |
| --- | --- |
| CPCMLMMFSVGLTSSSPILC | 0.268 ± 0.44 |
| CPFHIIHKQSLRKMMSTWEA | inactive |
| CPFLILIFGYPK | inactive |
| CPVRGPKVVIQCMMLSILTV | inactive |
| CPYLLNVIMWAIFRSANFVA | inactive |
| CQFVKVMCLHSYILRPSPPP | inactive |
| CQNLATRSFKALPLRSLCTC | inactive |
| CQSLLSGRFTGKSFEIT | inactive |
| CQVMSNFCNGMPQTQFGVGS | inactive |
| CQYFLSWRASVC | inactive |
| CRCDFFDSKAAPIGGGNNVL | inactive |
| CRCNVSLGILFKRGMSKRRI | 1.01 ± 0.11 |
| CRCRFLAVWWNSVGYNDGVG | inactive |
| CRENKEYIQGSDTLNFHYPM | inactive |
| CRGGNFRPMEGATVNPLFEG | inactive |
| CRGYADFT | inactive |
| CRRVDFGSLSRFMGSGFNVD | inactive |
| CRSEYYAF | inactive |
| CRSIWITPGNYAFALSFLMR | inactive |
| CRTTRLTLNGVIVGNAGFSI | inactive |
| CRVFDYFSLRVYVTVRYSLF | inactive |
| CRWGNVIYFFTR | 1.45 ± 0.12 |
| CRYLICVGS | inactive |

| Substance | amyloid nucleation score |
| --- | --- |
| CRYNVIYWGIDSCYHMWSWR | inactive |
| CSAFAYRSSWRFAWNTIFDY | inactive |
| CSAYNLSYHGGRDVRCRNTF | inactive |
| CSCIGWLRNGDVSCNVDRAS | inactive |
| CSFGRS | inactive |
| CSGHYLFILLGFDTYNGEVF | inactive |
| CSHYFNVYTLRCISSIGDS | inactive |
| CSISSKIFLLLMNWLCWSCG | inactive |
| CSLGLLMVQRERC | 1.38 ± 0.098 |
| CSNSGFTGENRVARLPRDGG | inactive |
| CSNVRPLD | inactive |
| CSQNT | inactive |
| CSRSKNNTFRHSLWFHRYYA | inactive |
| CSSKKRDV | inactive |
| CSSSYMGQDHVFVSDSARCS | inactive |
| CSVGVAVGMIG | inactive |
| CSYILVFSNSFFFHAHSTWV | inactive |
| CSYYFQLNMVSKECPRS | 0.562 ± 0.14 |
| CTDIICMIRFVVLDMRGAN | 0.981 ± 0.12 |
| CTECDNSFRPLKNRDTYTAR | 0.046 ± 0.27 |
| CTGSWMVTAERLARACHTRL | inactive |
| CTHEFTTRHLICFRFSKLVY | inactive |
| CTSAKIICHQSMRTRCTEQD | inactive |

| Substance | amyloid nucleation score |
| --- | --- |
| CTSQVDT | inactive |
| CTTDRGVVLWVCRNG | inactive |
| CVDCRGESAHLLIARWFMRR | 0.387 ± 0.38 |
| CVDYKRMNGFKCTLDVFRAI | 0.184 ± 0.61 |
| CVEVWLPYFFLSMS | inactive |
| CVGGSVFVACMLRSRVWGWC | inactive |
| CVGYMGLGALEYIVNAHGGI | inactive |
| CVNLRNIRFSTLRGMGGWI | inactive |
| CVNTIFTRRFWNEGSIPAGL | inactive |
| CVQLKSTSHVYYFRDQVGLD | 1.41 ± 0.087 |
| CVRNENRSGS | -0.974 ± 2.5 |
| CVSDLCSW | inactive |
| CVSEKQWLSVVVELVFWGCG | -0.821 ± 1.3 |
| CVVDNRRCLFLYWSLVSFNW | 1.18 ± 0.13 |
| CWRCFSAD | 0.041 ± 0.6 |
| CWSRMNSVDAIYK | inactive |
| CWVVHGNNRVHGHMLGLRAI | inactive |
| CYFTASCLWMNANIDVSLSK | inactive |
| CYGKTGSCFSVLHGWGGFVM | inactive |
| CYMFRDDRIVYHDGLNRHCK | inactive |
| CYNDRFFIVSIYRDQ | 1.07 ± 0.1 |
| CYSFLWALRGMEF | inactive |
| CYWTYVRLSSVFRDHIVALT | inactive |

| Substance | amyloid nucleation score |
| --- | --- |
| DALIRY | inactive |
| DAPSFLSMSRFAFYNFNLYW | 1.29 ± 0.12 |
| DCKINIGVVVSLGACLSWSE | 1.65 ± 0.084 |
| DCSSNVRTSCWNHRSYHVVY | inactive |
| DCYMDLSRQFRNRCGLASFY | inactive |
| DCYRGVSLCELFDECR | inactive |
| DDIYKEVDRWKNWYRRLKHT | inactive |
| DDRSP | inactive |
| DEAMEDFEWRRMGLV | inactive |
| DEFEMLLEGWVSVVGMMTRE | inactive |
| DEKIGGTVKYGVVQAYV | inactive |
| DERKPVGSHDGYSYVSVVTR | inactive |
| DFDFQIYC | 0.507 ± 0.25 |
| DFDNLFYTTLNSQFPRTRFV | inactive |
| DFGVGN | inactive |
| DFKILKVHKSRSSNSGSEDW | inactive |
| DFLVPIKARNYCLNVGPNTY | inactive |
| DFPIGYHHNVMI | inactive |
| DFRLLWVQTMSFCLNYQAKL | inactive |
| DFSKVNDQTADSYMWCSVDS | inactive |
| DFSNILLGTNQNNAVSAGSG | inactive |
| DFSSCCDHPFIVI | 0.346 ± 0.75 |
| DFSYRENYVPIDGIRLTVFW | inactive |

| Substance | amyloid nucleation score |
| --- | --- |
| DGCVEELWRGRVLMKMFTHS | inactive |
| DGGYFGNSWFIHGDSLFQMG | inactive |
| DGHKCCTG | inactive |
| DHNARSVCTSNHSMAKRMFG | inactive |
| DHVLNRPYYDNNLKYYDTWL | inactive |
| DIAREVCSTCLKV | inactive |
| DIDTLYTTIEKCFEDIT | inactive |
| DIELLGKARGYSLEQG | inactive |
| DIEYEY | inactive |
| DIFGKRRLCI | inactive |
| DIFWYTASNYYIIYNAYYPA | 0.709 ± 0.14 |
| DIMLYSWITCIMSSAPPRDN | 1.74 ± 0.11 |
| DIRYLNNFDSCQYGRGFLAA | inactive |
| DISKFNDSLSPSELSGLIFS | inactive |
| DITAG | inactive |
| DITRMVNNKFIWSSVSGLAC | inactive |
| DIVIFVEVNHWFLMGMSHKT | 0.999 ± 0.088 |
| DKFMWVGNSCVHSD | inactive |
| DKGFINCVSGSGDHVTCGGS | inactive |
| DKRDNMYICVCRYCHETWCI | -0.397 ± 0.66 |
| DKTCKVDWMSFTSHDF | inactive |
| DKVIHVAGFKVIDCHSSRIR | inactive |
| DKWFMSVPIISTRICGGCLG | inactive |

| Substance | amyloid nucleation score |
| --- | --- |
| DLFDSRVVSSDAVSCYYAAS | inactive |
| DLFISPKFVQ | inactive |
| DLFWLGFNWHLGCRFYVGAN | inactive |
| DLHVWLGVKQ | inactive |
| DLKWNVRHGCISKTARGFVT | inactive |
| DLLQVLPCVLDSYGARAVRC | inactive |
| DLLWLLFGLTSDLQFFIRYK | inactive |
| DLLYYLRSCDFCCCMDTS | inactive |
| DLNIKYMVWACTSVRDCRYY | 1.01 ± 0.085 |
| DLNLVMSSGSRDRLNSLLRR | inactive |
| DLPVGLWKQESLSAGMYNSW | inactive |
| DLRLFFRRRGISQLDC | 0.356 ± 0.26 |
| DLVVNGSFNTDTCFETVSVH | inactive |
| DMIYMLVAFARFIYLDTCIR | inactive |
| DMQHPFDFKRQ | inactive |
| DNARCSLHFYNSCWISVWKY | inactive |
| DNAVVEEYIIEVAKSFWTDG | inactive |
| DNDQNGVREVERGVLTLSSV | inactive |
| DNEEKLIGRSL | inactive |
| DNKLDNRYLGYRFRCTTFHF | inactive |
| DNKSL | inactive |
